Source: article PMC7382501

Biological target: FasR full-length (crystallisation) (Mycobacterium tuberculosis H37Rv, UniProt O05858 1-228)
Experiment: X-ray crystallography
Conditions: protein: recombinant; tags: N-terminal His6-TEV, likely cleaved with TEV; chain copies: 2; blunt

B1: Pfas25nt (FwPfas25nt/RvPfas25nt) (dsDNA)
DNA 1: TACCCGTACGTAGAACTCGCCAGTA
DNA 2: TACTGGCGAGTTCTACGTACGGGTA
  binding result: binds
